Source: IntAct's records for PubMed 25910212
Blank lines part the entries; values can stand above or below the substance they belong to.

Columns and labels:
cof2_human CFL2 = cof2_human CFL2 (UniProt Q9Y281)
cap2_human CAP2 [1] = biological target: cap2_human CAP2 (UniProt P40123)
cap2_human CAP2 [2] = biological target: cap2_human CAP2 (UniProt P40123); remark: listed apart in the source
pnma1_human PNMA1 = pnma1_human PNMA1 (UniProt Q8ND90)
tfp11_human TFIP11 = tfp11_human TFIP11 (UniProt Q9UBB9)
Sequence of tfp11_human TFIP11 (Q9UBB9 whole entry): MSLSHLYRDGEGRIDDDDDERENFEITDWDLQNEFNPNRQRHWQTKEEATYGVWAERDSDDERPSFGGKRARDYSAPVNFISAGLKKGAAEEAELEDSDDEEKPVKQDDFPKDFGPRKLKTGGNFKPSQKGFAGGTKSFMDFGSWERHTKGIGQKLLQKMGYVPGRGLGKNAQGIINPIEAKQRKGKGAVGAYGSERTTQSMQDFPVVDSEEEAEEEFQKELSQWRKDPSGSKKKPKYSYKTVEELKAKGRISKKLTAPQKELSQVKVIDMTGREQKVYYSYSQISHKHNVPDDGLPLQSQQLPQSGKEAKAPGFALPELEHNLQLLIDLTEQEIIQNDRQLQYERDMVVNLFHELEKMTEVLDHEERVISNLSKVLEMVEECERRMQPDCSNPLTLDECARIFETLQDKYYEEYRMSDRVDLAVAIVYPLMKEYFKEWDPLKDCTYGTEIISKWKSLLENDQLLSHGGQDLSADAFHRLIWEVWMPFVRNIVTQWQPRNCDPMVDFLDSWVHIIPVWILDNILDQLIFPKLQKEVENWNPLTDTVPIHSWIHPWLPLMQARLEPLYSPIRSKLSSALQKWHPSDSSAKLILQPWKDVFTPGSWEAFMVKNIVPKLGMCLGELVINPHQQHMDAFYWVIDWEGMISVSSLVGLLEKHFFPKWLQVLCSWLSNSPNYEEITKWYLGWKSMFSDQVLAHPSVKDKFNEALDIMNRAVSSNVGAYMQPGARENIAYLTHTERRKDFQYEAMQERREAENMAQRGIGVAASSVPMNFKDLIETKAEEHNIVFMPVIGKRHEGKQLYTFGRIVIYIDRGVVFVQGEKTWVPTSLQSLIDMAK

shlb1_human SH3GLB1 = shlb1_human SH3GLB1 (UniProt Q9Y371)
praf1_human RABAC1 = praf1_human RABAC1 (UniProt Q9UI14)
dtx2_human DTX2 = dtx2_human DTX2 (UniProt Q86UW9)
Sequence of dtx2_human DTX2 (Q86UW9 whole entry): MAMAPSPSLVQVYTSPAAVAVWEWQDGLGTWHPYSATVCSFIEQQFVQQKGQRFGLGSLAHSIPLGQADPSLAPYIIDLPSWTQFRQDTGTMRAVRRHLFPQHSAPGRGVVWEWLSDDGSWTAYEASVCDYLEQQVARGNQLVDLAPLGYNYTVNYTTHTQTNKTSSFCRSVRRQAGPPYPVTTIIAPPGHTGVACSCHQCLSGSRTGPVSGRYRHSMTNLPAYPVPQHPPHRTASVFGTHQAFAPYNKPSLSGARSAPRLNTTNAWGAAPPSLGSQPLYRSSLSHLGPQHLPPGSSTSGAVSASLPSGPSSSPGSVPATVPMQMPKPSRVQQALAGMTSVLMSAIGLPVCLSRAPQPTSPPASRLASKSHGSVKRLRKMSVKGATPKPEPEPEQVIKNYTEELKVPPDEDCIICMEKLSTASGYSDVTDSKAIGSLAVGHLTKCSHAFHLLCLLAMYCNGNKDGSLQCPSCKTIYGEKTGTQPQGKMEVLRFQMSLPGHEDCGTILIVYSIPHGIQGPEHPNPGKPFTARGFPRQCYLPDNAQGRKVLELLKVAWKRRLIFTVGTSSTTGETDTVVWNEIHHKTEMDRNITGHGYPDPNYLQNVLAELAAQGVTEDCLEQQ

reep6_human REEP6 = reep6_human REEP6 (UniProt Q96HR9)
Sequence of reep6_human REEP6 (Q96HR9 whole entry): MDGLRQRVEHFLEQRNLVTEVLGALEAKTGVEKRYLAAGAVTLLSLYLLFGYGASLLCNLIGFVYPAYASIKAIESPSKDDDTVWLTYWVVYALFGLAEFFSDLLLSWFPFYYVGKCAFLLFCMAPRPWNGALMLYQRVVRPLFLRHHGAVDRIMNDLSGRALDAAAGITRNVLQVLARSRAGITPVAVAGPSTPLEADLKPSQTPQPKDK

ldaf1_human LDAF1 = ldaf1_human LDAF1 (UniProt Q96B96)
Sequence of ldaf1_human LDAF1 (Q96B96 whole entry): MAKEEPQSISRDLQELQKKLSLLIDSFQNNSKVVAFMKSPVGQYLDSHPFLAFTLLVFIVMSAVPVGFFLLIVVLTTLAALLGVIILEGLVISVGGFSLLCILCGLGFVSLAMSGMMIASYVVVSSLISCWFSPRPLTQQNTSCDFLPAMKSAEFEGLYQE

mdfi_human MDFI = mdfi_human MDFI (UniProt Q99750)
Sequence of mdfi_human MDFI (Q99750 whole entry): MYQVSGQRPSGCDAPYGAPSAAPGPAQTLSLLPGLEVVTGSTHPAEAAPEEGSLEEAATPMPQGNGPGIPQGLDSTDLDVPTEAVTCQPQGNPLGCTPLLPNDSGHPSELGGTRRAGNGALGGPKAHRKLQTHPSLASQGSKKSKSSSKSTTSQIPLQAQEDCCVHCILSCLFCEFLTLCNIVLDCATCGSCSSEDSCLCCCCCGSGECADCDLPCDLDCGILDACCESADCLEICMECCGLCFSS

kra32_human KRTAP3-2 = kra32_human KRTAP3-2 (UniProt Q9BYR7)
trip6_human TRIP6 = trip6_human TRIP6 (UniProt Q15654)
lzts2_human LZTS2 = lzts2_human LZTS2 (UniProt Q9BRK4)
Sequence of lzts2_human LZTS2 (Q9BRK4 whole entry): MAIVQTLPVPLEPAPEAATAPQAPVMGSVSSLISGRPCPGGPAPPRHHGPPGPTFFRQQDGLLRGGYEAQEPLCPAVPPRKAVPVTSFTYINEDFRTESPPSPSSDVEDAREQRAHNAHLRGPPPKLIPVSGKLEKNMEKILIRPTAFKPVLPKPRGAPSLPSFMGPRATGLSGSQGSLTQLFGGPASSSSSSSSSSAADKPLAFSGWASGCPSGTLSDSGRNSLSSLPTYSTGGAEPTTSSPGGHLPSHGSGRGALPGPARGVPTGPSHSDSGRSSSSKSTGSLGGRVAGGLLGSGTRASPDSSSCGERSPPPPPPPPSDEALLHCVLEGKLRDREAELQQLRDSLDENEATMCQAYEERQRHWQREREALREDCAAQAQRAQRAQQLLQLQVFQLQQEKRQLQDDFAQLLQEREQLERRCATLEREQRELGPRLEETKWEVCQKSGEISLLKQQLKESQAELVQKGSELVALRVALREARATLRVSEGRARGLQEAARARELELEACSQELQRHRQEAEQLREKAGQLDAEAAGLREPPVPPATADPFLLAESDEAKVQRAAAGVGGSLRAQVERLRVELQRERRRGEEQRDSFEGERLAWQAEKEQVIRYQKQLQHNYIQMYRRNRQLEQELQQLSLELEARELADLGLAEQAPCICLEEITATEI

smim3_human SMIM3 [3] = biological target: T1, smim3_human SMIM3 (UniProt Q9BZL3)
T1 sequence: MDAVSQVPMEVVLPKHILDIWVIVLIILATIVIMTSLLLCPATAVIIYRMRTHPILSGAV

tmm79_human TMEM79 = biological target: T2, tmm79_human TMEM79 (UniProt Q9BSE2)
T2 sequence: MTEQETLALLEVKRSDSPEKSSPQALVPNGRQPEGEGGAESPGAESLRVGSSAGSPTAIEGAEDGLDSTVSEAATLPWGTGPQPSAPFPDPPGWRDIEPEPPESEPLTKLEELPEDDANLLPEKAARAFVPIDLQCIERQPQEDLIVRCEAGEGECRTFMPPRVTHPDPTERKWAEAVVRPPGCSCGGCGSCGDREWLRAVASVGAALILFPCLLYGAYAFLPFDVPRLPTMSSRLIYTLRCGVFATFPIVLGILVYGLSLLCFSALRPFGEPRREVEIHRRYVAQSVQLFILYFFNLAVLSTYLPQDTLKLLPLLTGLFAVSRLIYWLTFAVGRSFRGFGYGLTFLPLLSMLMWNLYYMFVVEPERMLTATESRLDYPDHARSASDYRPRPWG

SYNE4, Q8N205-2 = biological target: T3, SYNE4, Q8N205-2
T3 sequence: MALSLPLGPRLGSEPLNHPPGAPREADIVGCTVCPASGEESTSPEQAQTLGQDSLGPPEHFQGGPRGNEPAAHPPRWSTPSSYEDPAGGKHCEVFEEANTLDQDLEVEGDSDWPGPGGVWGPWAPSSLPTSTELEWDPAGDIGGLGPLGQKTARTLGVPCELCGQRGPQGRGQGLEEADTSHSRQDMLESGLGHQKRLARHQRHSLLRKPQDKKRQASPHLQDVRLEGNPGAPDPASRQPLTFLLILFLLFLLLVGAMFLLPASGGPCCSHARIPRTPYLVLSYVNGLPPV

smim3_human SMIM3 [4] = biological target: T1, smim3_human SMIM3; remark: listed apart in the source
gsto2_human GSTO2 = gsto2_human GSTO2 (UniProt Q9H4Y5)
Sequence of gsto2_human GSTO2 (Q9H4Y5 whole entry): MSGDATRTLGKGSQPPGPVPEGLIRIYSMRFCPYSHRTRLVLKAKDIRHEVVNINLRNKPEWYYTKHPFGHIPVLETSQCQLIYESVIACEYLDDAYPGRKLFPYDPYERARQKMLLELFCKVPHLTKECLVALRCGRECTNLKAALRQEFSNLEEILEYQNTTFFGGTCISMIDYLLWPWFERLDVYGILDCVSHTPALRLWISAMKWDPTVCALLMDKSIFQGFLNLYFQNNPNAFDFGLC

Sequence of CMTM5, Q96DZ9-2 (Q96DZ9 other isoform, or with tags, fused parts or gaps): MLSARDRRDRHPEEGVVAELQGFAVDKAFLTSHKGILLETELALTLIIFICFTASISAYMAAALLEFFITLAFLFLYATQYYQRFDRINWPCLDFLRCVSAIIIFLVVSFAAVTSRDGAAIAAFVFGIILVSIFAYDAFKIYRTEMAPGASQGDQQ
Sequence of UBQLN1, Q9UMX0-2 (Q9UMX0 other isoform, or with tags, fused parts or gaps): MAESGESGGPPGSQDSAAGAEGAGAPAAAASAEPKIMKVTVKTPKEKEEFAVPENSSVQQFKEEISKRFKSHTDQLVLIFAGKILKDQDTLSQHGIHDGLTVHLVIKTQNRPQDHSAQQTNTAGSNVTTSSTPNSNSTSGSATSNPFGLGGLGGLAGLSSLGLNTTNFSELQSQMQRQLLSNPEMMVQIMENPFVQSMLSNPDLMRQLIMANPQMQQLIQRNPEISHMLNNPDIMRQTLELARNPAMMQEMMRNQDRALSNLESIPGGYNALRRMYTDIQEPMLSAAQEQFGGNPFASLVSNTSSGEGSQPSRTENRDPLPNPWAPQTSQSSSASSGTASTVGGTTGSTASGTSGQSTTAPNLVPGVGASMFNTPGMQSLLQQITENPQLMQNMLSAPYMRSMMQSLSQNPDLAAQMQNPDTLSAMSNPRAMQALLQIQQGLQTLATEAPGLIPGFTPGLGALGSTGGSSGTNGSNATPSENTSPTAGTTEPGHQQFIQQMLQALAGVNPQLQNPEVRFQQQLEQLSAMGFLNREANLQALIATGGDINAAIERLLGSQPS
Sequence of Erythroid transcription factor (Homo sapiens), P15976-2 G208R (P15976 other isoform, or with tags, fused parts or gaps G208R): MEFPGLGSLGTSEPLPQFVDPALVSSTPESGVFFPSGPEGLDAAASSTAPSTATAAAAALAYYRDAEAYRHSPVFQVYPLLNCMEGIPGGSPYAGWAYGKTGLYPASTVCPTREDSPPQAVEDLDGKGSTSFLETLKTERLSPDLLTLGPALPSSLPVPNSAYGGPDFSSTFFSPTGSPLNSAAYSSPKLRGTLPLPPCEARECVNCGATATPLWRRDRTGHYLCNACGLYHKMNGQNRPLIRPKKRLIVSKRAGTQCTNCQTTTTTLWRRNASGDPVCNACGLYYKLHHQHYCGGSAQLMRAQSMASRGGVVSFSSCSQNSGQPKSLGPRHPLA
Sequence of Erythroid transcription factor (Homo sapiens), P15976-2 D218G (P15976 other isoform, or with tags, fused parts or gaps D218G): as the sequence (P15976 other isoform, or with tags, fused parts or gaps G208R) above
Sequence of Erythroid transcription factor (Homo sapiens), P15976-2 V205M (P15976 other isoform, or with tags, fused parts or gaps V205M): as the sequence (P15976 other isoform, or with tags, fused parts or gaps G208R) above
Sequence of AGTRAP, Q6RW13-2 (Q6RW13 other isoform, or with tags, fused parts or gaps): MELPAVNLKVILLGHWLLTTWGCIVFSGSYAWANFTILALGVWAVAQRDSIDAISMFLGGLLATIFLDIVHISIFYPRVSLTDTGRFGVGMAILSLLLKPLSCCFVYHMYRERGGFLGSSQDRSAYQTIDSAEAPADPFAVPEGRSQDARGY

effect of a mutation on the interaction (cof2_human CFL2): disrupting interaction strength
effect of a mutation on the interaction (cap2_human CAP2 [1]): disrupting interaction strength
Substance: Actin, cytoplasmic 2 (Homo sapiens) (from UniProt P63261) I122V

effect of a mutation on the interaction (cof2_human CFL2): disrupting interaction strength
effect of a mutation on the interaction (cap2_human CAP2 [2]): causing an interaction
effect of a mutation on the interaction (cap2_human CAP2 [1]): with no effect
Substance: Actin, cytoplasmic 2 (Homo sapiens) (from UniProt P63261) P264L

effect of a mutation on the interaction (cof2_human CFL2): with no effect
effect of a mutation on the interaction (cap2_human CAP2 [2]): causing an interaction
effect of a mutation on the interaction (cap2_human CAP2 [1]): with no effect
Substance: Actin, cytoplasmic 2 (Homo sapiens) (from UniProt P63261) T89I

effect of a mutation on the interaction (pnma1_human PNMA1): disrupting interaction strength
Substance: Aprataxin (Homo sapiens), Q7Z2E3-7 H228R

effect of a mutation on the interaction (CMTM5, Q96DZ9-2): with no effect
effect of a mutation on the interaction (tfp11_human TFIP11): disrupting interaction strength
effect of a mutation on the interaction (shlb1_human SH3GLB1): disrupting interaction strength
effect of a mutation on the interaction (TMEM239, Q8WW34-2): disrupting interaction strength
effect of a mutation on the interaction (AGTRAP, Q6RW13-2): with no effect
effect of a mutation on the interaction (praf1_human RABAC1): disrupting interaction strength
effect of a mutation on the interaction (dtx2_human DTX2): disrupting interaction strength
effect of a mutation on the interaction (reep6_human REEP6): disrupting interaction strength
effect of a mutation on the interaction (ldaf1_human LDAF1): disrupting interaction strength
Substance: Atypical kinase COQ8A, mitochondrial (Homo sapiens), Q8NI60 E551K

effect of a mutation on the interaction (CMTM5, Q96DZ9-2): with no effect
effect of a mutation on the interaction (tfp11_human TFIP11): with no effect
effect of a mutation on the interaction (shlb1_human SH3GLB1): with no effect
effect of a mutation on the interaction (TMEM239, Q8WW34-2): with no effect
effect of a mutation on the interaction (AGTRAP, Q6RW13-2): with no effect
effect of a mutation on the interaction (praf1_human RABAC1): with no effect
effect of a mutation on the interaction (dtx2_human DTX2): with no effect
effect of a mutation on the interaction (reep6_human REEP6): with no effect
effect of a mutation on the interaction (ldaf1_human LDAF1): with no effect
Substance: Atypical kinase COQ8A, mitochondrial (Homo sapiens), Q8NI60 H80Y

effect of a mutation on the interaction (CMTM5, Q96DZ9-2): with no effect
effect of a mutation on the interaction (tfp11_human TFIP11): with no effect
effect of a mutation on the interaction (shlb1_human SH3GLB1): with no effect
effect of a mutation on the interaction (TMEM239, Q8WW34-2): with no effect
effect of a mutation on the interaction (AGTRAP, Q6RW13-2): with no effect
effect of a mutation on the interaction (praf1_human RABAC1): with no effect
effect of a mutation on the interaction (dtx2_human DTX2): with no effect
effect of a mutation on the interaction (reep6_human REEP6): with no effect
effect of a mutation on the interaction (ldaf1_human LDAF1): with no effect
Substance: Atypical kinase COQ8A, mitochondrial (Homo sapiens), Q8NI60 H85Q

effect of a mutation on the interaction (CMTM5, Q96DZ9-2): disrupting interaction strength
effect of a mutation on the interaction (tfp11_human TFIP11): disrupting interaction strength
effect of a mutation on the interaction (shlb1_human SH3GLB1): disrupting interaction strength
effect of a mutation on the interaction (TMEM239, Q8WW34-2): disrupting interaction strength
effect of a mutation on the interaction (AGTRAP, Q6RW13-2): disrupting interaction strength
effect of a mutation on the interaction (praf1_human RABAC1): disrupting interaction strength
effect of a mutation on the interaction (dtx2_human DTX2): disrupting interaction strength
effect of a mutation on the interaction (reep6_human REEP6): disrupting interaction strength
effect of a mutation on the interaction (ldaf1_human LDAF1): disrupting interaction strength
Substance: Atypical kinase COQ8A, mitochondrial (Homo sapiens), Q8NI60 R213W

effect of a mutation on the interaction (UBQLN1, Q9UMX0-2): with no effect
Substance: Cytosolic 5'-nucleotidase 3A (Homo sapiens) (from UniProt Q9H0P0) F36L

effect of a mutation on the interaction (UBQLN1, Q9UMX0-2): disrupting interaction strength
Substance: Cytosolic 5'-nucleotidase 3A (Homo sapiens) (from UniProt Q9H0P0) G207R

effect of a mutation on the interaction (mdfi_human MDFI): with no effect
effect of a mutation on the interaction (kra32_human KRTAP3-2): with no effect
effect of a mutation on the interaction (trip6_human TRIP6): with no effect
effect of a mutation on the interaction (lzts2_human LZTS2): disrupting interaction strength
Substance: Erythroid transcription factor (Homo sapiens), P15976-2 V205M

effect of a mutation on the interaction (smim3_human SMIM3 [3]): with no effect
effect of a mutation on the interaction (tmm79_human TMEM79): with no effect
effect of a mutation on the interaction (SYNE4, Q8N205-2): with no effect
effect of a mutation on the interaction (smim3_human SMIM3 [4]): causing an interaction
Substance: Surfactant protein C (Homo sapiens) (from UniProt P11686) H64P

effect of a mutation on the interaction (gsto2_human GSTO2): with no effect
Substance: Transcription factor AP-2-alpha (Homo sapiens), P05549-5 G256E

The next lines start with the substance.

Substance: Aprataxin (Homo sapiens), Q7Z2E3-7 A198V
effect of a mutation on the interaction (pnma1_human PNMA1): with no effect

Substance: Aprataxin (Homo sapiens), Q7Z2E3-7 V263G
effect of a mutation on the interaction (pnma1_human PNMA1): disrupting interaction strength

Substance: Atypical kinase COQ8A, mitochondrial (Homo sapiens), Q8NI60 G272V
effect of a mutation on the interaction (CMTM5, Q96DZ9-2): with no effect
effect of a mutation on the interaction (tfp11_human TFIP11): disrupting interaction strength
effect of a mutation on the interaction (shlb1_human SH3GLB1): with no effect
effect of a mutation on the interaction (TMEM239, Q8WW34-2): disrupting interaction strength
effect of a mutation on the interaction (AGTRAP, Q6RW13-2): with no effect
effect of a mutation on the interaction (praf1_human RABAC1): disrupting interaction strength
effect of a mutation on the interaction (dtx2_human DTX2): with no effect
effect of a mutation on the interaction (reep6_human REEP6): disrupting interaction strength
effect of a mutation on the interaction (ldaf1_human LDAF1): disrupting interaction strength

Substance: Atypical kinase COQ8A, mitochondrial (Homo sapiens), Q8NI60 Y514C
effect of a mutation on the interaction (CMTM5, Q96DZ9-2): with no effect
effect of a mutation on the interaction (tfp11_human TFIP11): with no effect
effect of a mutation on the interaction (shlb1_human SH3GLB1): with no effect
effect of a mutation on the interaction (TMEM239, Q8WW34-2): with no effect
effect of a mutation on the interaction (AGTRAP, Q6RW13-2): with no effect
effect of a mutation on the interaction (praf1_human RABAC1): with no effect
effect of a mutation on the interaction (dtx2_human DTX2): with no effect
effect of a mutation on the interaction (reep6_human REEP6): with no effect
effect of a mutation on the interaction (ldaf1_human LDAF1): with no effect

Substance: Cytosolic 5'-nucleotidase 3A (Homo sapiens) (from UniProt Q9H0P0) C113R
effect of a mutation on the interaction (UBQLN1, Q9UMX0-2): with no effect

Substance: Cytosolic 5'-nucleotidase 3A (Homo sapiens) (from UniProt Q9H0P0) D137V
effect of a mutation on the interaction (UBQLN1, Q9UMX0-2): with no effect

Substance: Cytosolic 5'-nucleotidase 3A (Homo sapiens) (from UniProt Q9H0P0) G280R
effect of a mutation on the interaction (UBQLN1, Q9UMX0-2): with no effect

Substance: Erythroid transcription factor (Homo sapiens), P15976-2 D218G
effect of a mutation on the interaction (mdfi_human MDFI): with no effect
effect of a mutation on the interaction (kra32_human KRTAP3-2): with no effect
effect of a mutation on the interaction (trip6_human TRIP6): with no effect
effect of a mutation on the interaction (lzts2_human LZTS2): with no effect

Substance: Erythroid transcription factor (Homo sapiens), P15976-2 G208R
effect of a mutation on the interaction (mdfi_human MDFI): with no effect
effect of a mutation on the interaction (kra32_human KRTAP3-2): with no effect
effect of a mutation on the interaction (trip6_human TRIP6): with no effect
effect of a mutation on the interaction (lzts2_human LZTS2): with no effect

Substance: Surfactant protein C (Homo sapiens) (from UniProt P11686) P30L
effect of a mutation on the interaction (smim3_human SMIM3 [3]): with no effect
effect of a mutation on the interaction (tmm79_human TMEM79): with no effect
effect of a mutation on the interaction (SYNE4, Q8N205-2): with no effect
effect of a mutation on the interaction (smim3_human SMIM3 [4]): causing an interaction

Substance: Transcription factor AP-2-alpha (Homo sapiens), P05549-5 R248W
effect of a mutation on the interaction (gsto2_human GSTO2): with no effect

Substance: Transcription factor AP-2-alpha (Homo sapiens), P05549-5 R249G
effect of a mutation on the interaction (gsto2_human GSTO2): with no effect
